We go through 30 sequences from the supplement of paper PMC9170038.

In the data set the test system is MS2 coat protein. Kind of data set: apparent KD of MS2 coat protein; designed switch direction (-1 OFF switch, 1 ON switch): -1; higher = weaker reporter binding. In outline:
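For each design, the apparent KD is the median over clusters of curves fitted to normalised cluster fluorescence. Clusters held RNA switches with common flanks, transcribed on Illumina chips by stalled E. coli RNA polymerase. These were titrated with SNAP-549-labelled MS2 coat protein, doubling from 0.7 or 1.5 nM to 3 µM, without input, with 200 uM small-molecule ligand, or with an oligonucleotide input.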

Where [1] appears, read: input ligand: microRNA oligo, concentration not stated.
Setting [2] is: Eterna round: R95, input ligand: FMN 200 uM.
Setting [3] is: Eterna round: R95, input ligand: microRNA oligo, concentration not stated.
The mark [4] stands for this setting: Eterna round: R95, input ligand: none.

“UACCUGAGGCUUUGCUUUAGGCUUACAUGAGGAUCACCCAUGUAGGAUAUGGUAGGCUUUGCUUACCAGAAGGACAUGGAAAUU [Mat - Exclusion NG 3 - Mod of JL - D20] (Eterna round: R96, puzzle: Exclusion NG 3)”: the “apparent KD of MS2 coat protein” value amounted to 349 nM (input ligand: FMN 200 uM), 63 nM under setting [1] and 70.7 nM (input ligand: none).

Take “ACAUGAGGAUCACCCAUGUUUGGCUGGUUUUCUCCGGCUGUCGAGGAUAUAGUACGGUAUCCGCGCUAGAAGGUGAGGGCCGGC [Aenatbe mod 1] (Eterna round: R96, puzzle: Exclusion NG 3)”: the “apparent KD of MS2 coat protein” value reads like this: (input ligand: FMN 200 uM) 15.5 nM; under setting [1], 14.3 nM; (input ligand: none) 15.8 nM.

In the case of “UAUGGUUAAGUCAGGAUAUACUAAUAGAAGUCUGUGUAGAAGGGACAUGAGGAUCACCCAUGUAUGGUAGUGUU [Ex4 #60] (Eterna round: R97, puzzle: Brourd's mod of Exclusion 4)”, the “apparent KD of MS2 coat protein” value runs as follows: (input ligand: FMN 200 uM) 119 nM; (input ligand: none) 122 nM.

Regarding “GUAGAGUCAGGAUAUACGAGAUCGAUAGAUCGGCGAUCCCUACAUGAGGAUCACCCAUGUAGAAGGGACUCUAC [Mat - Exclusion 2 - Eli Mod - D12] (Eterna round: R97, puzzle: Exclusion 2)”, the “apparent KD of MS2 coat protein” value is, setting by setting: (input ligand: FMN 200 uM) 37.6 nM; (input ligand: none) 15.6 nM.

Turning to “GAUGGACAUGAGGAUCACCCAUGUAAGGAUAUUGUUUGUGGCUAGUUUUGGUUACGGGCGAGAAGGUACUCGUC [-19.7, -16.7 kcal, A 23%] (Eterna round: R97, puzzle: Exclusion 1)”, the “apparent KD of MS2 coat protein” value was 39.7 nM (input ligand: FMN 200 uM) and 47.7 nM (input ligand: none).

With “GAGCCUAAUGUAGGAUAUCGAGGUCGGUGACGUCGAGAAGGACAUGAGGAUCACCCAUGUCGUAGCGGCGGGAACGCUGCUACG [first try -36 kcal] (Eterna round: R96, puzzle: Exclusion NG 1)”, the “apparent KD of MS2 coat protein” value reads like this: (input ligand: FMN 200 uM) 82.9 nM; under setting [1], 147 nM; (input ligand: none) 274 nM.

As to “GAUUAUGCGAGCUUUAGGGACAUGAGGAUCACCCAUGUUCGUCUUAUUAGUCUAGGUGCACUGACAUACCUAAAUCU [JMF 90] (puzzle: Sensor v3, turn-off variant 1)”, the “apparent KD of MS2 coat protein” value runs as follows: under setting [2], 19.1 nM; under setting [3], 26.1 nM; under setting [4], 18.3 nM.

In the case of “CGCUGGACAGGAUAUGUUCUUGGGCACUUGAGGAUCACCCAAGUCAUCAAGAAAUCAGGCACAGAAGGGUUUAUGG [salish99_ex5_r4_021] (Eterna round: R97, puzzle: Exclusion 5)”, the “apparent KD of MS2 coat protein” value (input ligand: FMN 200 uM) turned out to be 18.7 nM and the “apparent KD of MS2 coat protein” value (input ligand: none) was determined as 19.9 nM.

As to “UUGAUGUGAGGAUAUAUAUGGUUGUUUUUUUAUUUUUUAUUACUUGAGGAUCACCCAAGUAGAAGGCGCUACGU [JR_Ex2_Sub068] (Eterna round: R97, puzzle: Exclusion 2)”, the “apparent KD of MS2 coat protein” value runs as follows: (input ligand: FMN 200 uM) 25.5 nM; (input ligand: none) 29.5 nM.

As for “UAUUAGAGAGGAUAUAUGAUGUGAAACAUGAGGAUCACCCAUGUAAUAUUAUGGAUGUAAAUAGAAGGCUCAUUUA [Mat - Exclusion 5 - JL mod - D15] (puzzle: Exclusion 5)”, the “apparent KD of MS2 coat protein” value reads like this: under setting [2], 47.4 nM; under setting [3], 77.5 nM; under setting [4], 80.2 nM.

On to “GUGCGCGGCUAGGAUAUUGUGGGUUUUUGUCUGCGAGAAGGAGCCACAUGAGGAUCACCCAUGUGGUGUUGCUC [salish99_ex6_r4_013] (Eterna round: R97, puzzle: Exclusion 6)”, for which the “apparent KD of MS2 coat protein” value by setting is: (input ligand: FMN 200 uM) 220 nM; (input ligand: none) 63.6 nM.

Turning to “ACAUGAGGAUCACCCAUGUCUGGCUGGUCUGCUCCGGCUGUUGAGGAUAUAGUCCGGUGUUCGCGCUAGAAGGUGAGGGCUGGA [Aenatbe mod 41] (Eterna round: R96, puzzle: Exclusion NG 3)”, the “apparent KD of MS2 coat protein” value was found to be 107 nM (input ligand: FMN 200 uM), 49.5 nM under setting [1] and 77.3 nM (input ligand: none).

“CCACGACAUGAGGAUCACCCAUGUGAGGAUAUGGCCUGUAAGGCGUGAGCUGAAUCAAUCAGAAGGCGCGUGGG [salish99_ex1_r4_057] (Eterna round: R97, puzzle: Exclusion 1)”: the “apparent KD of MS2 coat protein” value runs as follows: (input ligand: FMN 200 uM) 92.4 nM; (input ligand: none) 50.6 nM.

With “ACAAGCUUUUUGCUCGUCUACAUGAGGAUCACCCAUGUAGUGAGAUAGUGGUGAAGAUAGAUUGAGCGUAGUAGGUA [JR_SV3TOV1_Sub071] (puzzle: Sensor v3, turn-off variant 1)”, the “apparent KD of MS2 coat protein” value by setting is: under setting [2], 26.9 nM; under setting [3], 51.7 nM; under setting [4], 21.5 nM.

As for “AAGUCGACGGUGAGGAUAUAGGUCGAACGACCGAUCUAGAAGGCACAUGAGGAUCACCCAUGUGGGUAACGUCG [Brourd's EX4 #33] (Eterna round: R97, puzzle: Brourd's mod of Exclusion 4)”, the “apparent KD of MS2 coat protein” value is 29 nM (input ligand: FMN 200 uM) and 22.3 nM (input ligand: none).

Take “UAUAAAACAUAGGAUAUCGAAAUUAUCAUUUAACGAGAAGGAUGAACAUGAGGAUCACCCAUGUGGUAUCAUGG [Mat - Exclusion 6 - JL Mod - D10] (puzzle: Exclusion 6)”: the “apparent KD of MS2 coat protein” value was determined as 370 nM under setting [2], 425 nM under setting [3] and 238 nM under setting [4].

Turning to “UAAAGUAUAUAGGAUAUCUAGCUGGUAACAGCUAGAGAAGGAUGUACAUGAGGAUCACCCAUGUAAAUCAUGAA [Ex6/16-A2] (Eterna round: R97, puzzle: Exclusion 6)”, the “apparent KD of MS2 coat protein” value stood at 20.8 nM (input ligand: FMN 200 uM) and 17.3 nM (input ligand: none).

On to “UUAUUAUAUGUAGGAUAUGCGUAUUAUUGUUAUGCAGAAGGACAUGAGGAUCACCCAUGUAUAUUAUUGUUAUGUAUUAUAUAU [Title] (Eterna round: R96, puzzle: Exclusion NG 1)”, for which the “apparent KD of MS2 coat protein” value under setting [1] was determined as 26.6 nM.

Consider “CUUUUGUGAGGAUAUCAGGUGUGCUAGCGUACUGGUACAUCUGAGAAGGCACAUGAGGAUCACCCAUGUUCCUU [JL-ex4-3.18 Brourd mod] (puzzle: Exclusion 4)”, for which the “apparent KD of MS2 coat protein” value under setting [3] is 13.5 nM.

Turning to “GAAUGAGAGCAGGAUAUCUUAUAAAUGUAUGAAAGAGAAGGGCUCACAUGAGGAUCACCCAUGUGGUCCUAGAU [jl-ex6-4.76 jandersonlee mod] (Eterna round: R97, puzzle: Exclusion 6)”, the “apparent KD of MS2 coat protein” value was 645 nM (input ligand: FMN 200 uM) and 35.2 nM (input ligand: none).

“UAACAAAUGGUCAGGAUAUCAUUCCCGGCCCAGAGUGAGAAGGGACAUGAGGAUCACCCAUGUGUGAUUCUCAU [jl-ex4-4.55 ViennaUCT mod] (Eterna round: R97, puzzle: Brourd's mod of Exclusion 4)”: the “apparent KD of MS2 coat protein” value came to 128 nM (input ligand: FMN 200 uM) and 97.1 nM (input ligand: none).

Consider “GAUGUGGGUUUUCAGAGUAACAUGAGGAUCACCCAUGUAGAAGUUGGAGGGAUCAAGCUUUUUGGUCGUCAUAUGUG [JR_SV3TOV1_Sub051] (puzzle: Sensor v3, turn-off variant 1)”, for which the “apparent KD of MS2 coat protein” value under setting [2] came out at 442 nM, the “apparent KD of MS2 coat protein” value under setting [3] is 511 nM and the “apparent KD of MS2 coat protein” value under setting [4] worked out at 509 nM.

Take “GAUUAUGCGAGCUUUAGGGACAUGAGGAUCACCCAUGUUCGUCUUAUUGGUCUGAAUGCACUAACAUACCUAAAUCU [JMF 24] (puzzle: Sensor v3, turn-off variant 1)”: the “apparent KD of MS2 coat protein” value was found to be 26.2 nM under setting [2], 37 nM under setting [3] and 24.8 nM under setting [4].

For the sequence “UUAUUGUAUGUAGGAUAUGCAUAUUAUUAUUAUGCAGAAGGACAUGAGGAUCACCCAUGUAUAUUAUUAUUAUAUAUUAUAUAU [Title] (Eterna round: R96, puzzle: Exclusion NG 1)”, the “apparent KD of MS2 coat protein” value under setting [1] was found to be 24.6 nM.

As for “GGUCGACAUGAGGAUCACCCAUGUCAGGAUAUCGUCACUGGAGCCUCGGCUCCAGUGACGAGAAGGGAUAUGAU [E1/17-A2] (Eterna round: R97, puzzle: Exclusion 1)”, the “apparent KD of MS2 coat protein” value is, setting by setting: (input ligand: FMN 200 uM) 41.9 nM; (input ligand: none) 43.9 nM.

On to “CGAUAAUCCUAGGAUAUGCUAGACGAAAGUCUAGCAGAAGGAGGAACAUGAGGAUCACCCAUGUGUCCUAAUCG [Mat - Exclusion 6 - Eli Mod - D17] (Eterna round: R97, puzzle: Exclusion 6)”, for which the “apparent KD of MS2 coat protein” value is 30.9 nM (input ligand: FMN 200 uM) and 15.3 nM (input ligand: none).

Consider “CUAGCGAGUGUAGGAUAUCGGACUGUUUCAGUCUGAGAAGGACAUGAGGAUCACCCAUGUAUUGCUACGUGAGUAGCACGCUAG [JL ENG1 3.00] (Eterna round: R96, puzzle: Exclusion NG 1)”, for which the “apparent KD of MS2 coat protein” value by setting is: (input ligand: FMN 200 uM) 32.9 nM; under setting [1], 17.5 nM; (input ligand: none) 19 nM.

Consider “GUGUACGGAGGAUAUAUAUGGGCAGGCUGACCUGCAGCUUCACAUGAGGAUCACCCAUGUAGAAGGCUGUACAC [Mat - Exclusion 2 - Mod of Hyphema - D98] (puzzle: Exclusion 2)”, for which the “apparent KD of MS2 coat protein” value under setting [3] amounted to 33.2 nM.

“UGUCUCCUCGUCAGGAUAUUUCGUUGUGCAGACUGAAAGAAGGGACAUGAGGAUCACCCAUGUACCUCGUCGGU [Eternabot (L2) Solution 98] (Eterna round: R97, puzzle: Brourd's mod of Exclusion 4)”: the “apparent KD of MS2 coat protein” value reads like this: (input ligand: FMN 200 uM) 22.3 nM; (input ligand: none) 16.9 nM.

“CAGCUGUCAGGAUAUCGUGCAUACAACGAAAGUUCUAUGUGCGAGAAGGGACAUGAGGAUCACCCAUGUUUACG [Omei Ex4 A24] (Eterna round: R97, puzzle: Exclusion 4)”: the “apparent KD of MS2 coat protein” value (input ligand: FMN 200 uM) was 48 nM and the “apparent KD of MS2 coat protein” value (input ligand: none) stood at 28.6 nM.
